Test results from the DeepSol protein solubility set.

Experiment: soluble on expression in E. coli; label from the status in PepcDB or PDB records

| Sequence | soluble on expression in E. coli |
| --- | --- |
| MNFLEASWEEREVTAYKAILGDTGLGIFPLSHELFKRMSASGINPRWLTHGVFKSPPNGNRSTWAYITSGMSNPWETNEPEEHSGLGVEFIIETEKEETWAVEVLQMLMAYNLLLAAGQMGDFPLLGDGDRVPLALSDAIRTMMFTQPVSFPHCFSLKSGRVDLLQVVGITPAELQVAKQTSSDKIRTQLISKLGSLVTSKERESVVLEHHHHHH | not soluble |
| MSLKSHKLLYQLKNKLTWLPILILAACQNNIIYHSYAPVPLDGWDKSDTLVYTLPNSIPAGNYEAEIGIRYQESYPYRDIWLEVSHNTKDTLTYVTDTLQLFLVDEAGNKTGNGLCGLYQCDLPYKASIPIRTEGSARTFRIVHIMTDNPLTGISDIGIRLRKPENEGHHHHHH | not soluble |
| MWRLYRKTPKQLRNSVESCFKSVNSRQFSVSSFSAVAKDDKSVLKQQEVLHLLAKDQRFEERFFNQVQQTIRYFASKPNDLKKFFRKEASTDNKESSSSSDKKDSKGNKGEDNNPFNQFPGGWQQIAVSVGILLALYAFMDYQSYREISWKEFYSDFLEAGLVERLEVVDKRWVRIVSSSGKYAGQTCYFNIGSVDSFERSLGAAQHHLQYDADRQIPVLYKSEFNFKREIPNLISVAFPLLFGYYIYRMLKGGGAAGGAGRAGGGGLGGMFGGFGQSTARVINREDIKVKFADVAGCEEAKIEIMEFVNFLKNPQQYKDLGAKIPKGAILTGPPGTGKTLLAKATAGEANVPFITVSGSEFLEMFVGVGPARVRDMFSMARKNSPCILFIDEIDAVGRKRGGKGGMGGHSEQENTLNQLLVEMDGFTTDESSVIVIAATNRVDILDSALLRPGRFDRQIYVPVPDIKGRASIFRVHLGPLRTSLDKTVLSRKLAAHTPGFSGADISNVCNEAALIAARDANHEISNKHFEQAIERVVAGMEKKTQVLQKEEKKTVAYHEAGHAIAGWFLQHADPLLKVSIIPRGKGLGYAQYLPKEQYLYSKDQLLDRMCMTLGGRVAEEIFFGRITTGAQDDLQKVTQMAYSQVVKFGMSEKVGPLSFETPAPGEMAFDKPYSEATAQLIDQEVRDLVMNALRRTRDLLLEKRSDIERVALRLLEKEILNREDMIELVGKRPFVEKNTYEEMVSGTGGLDENVELPKGLENWNKESEKKKKDEEKKKNDE | not soluble |
| MMFGRFTERAQKVLALSQEEAIRIGHNNIGTEHILLGLVREGEGIAAKALIALGLSPEKVQKEVEALIGRGTEASQTVHYTPRAKKVIELSMDEARKLGHSYVGTEHILLGLIREGEGVAARVLNNLGVSLNKARQQVLQLLGSNEASSGHQGGSSTNANTPTLDSLARDLTVVARENRLDPVIGRGKEIQRVIEVLSRRTKNNPVLIGEPGVGKTAIAEGLAQQIVNNEVPETLRDKRVMTLDMGTVVAGTKYRGEFEDRLKKVMDEIRQAGNIILFIDELHTLIGAGGAEGAIDASNILKPSLARGELQCIGATTLDEYRKYIEKDAALERRFQPIHVDEPSLDESTQILKGLRDRYEAHHRVSITDDAIDAAVKLSDRYITDRFLPDKAIDLIDEAASKVRLRSYTTPPNLKELEVKLEEIRKEKDAAVQSQEFEKAASLRDMEQRLREKLEDTKRQWKEQQGKENSEVTVEDIANVVSTWTRIPVSKLAQTETDKLLNLESILHDRVIGQDEAVVAVAKAVRRARAGLKDPKRPIGSFIFLGPTGVGKTELARALAESMFGDEDAMIRIDMSEYMEKHSTSRLVGSPPGYVGYEEGGQLTEKVRRKPYSVVLLDEVEKAHPDVFNILLQVLEDGRLTDSKGRTVDFRNTIVIMTSNVGAEALKRNKHLGFNVQDESRDYSDMKGKVMDELKKAFRPEFLNRIDEIIVFHMLEKKHIQEIVTLMVNQLVNRLKEQEIELHLTEGAISAIADKGFDREYGARPLRRAIQKHVEDRLSEELLKGAIEKGQKVIFDVEGESFVIHSAEKVK | soluble |
| MGSDKIHHHHHHMGILYLKEHTSCYNYTKCIREGFLYHKFCDIEMDEEINETDSILFVIEGELEMSCNGKKMKLLAGNMICFGRGSRFKIHSRGKGSIVIAQFDNAVQSCEKISFAQLNSLDSPGDKIYPLEIRDRLHLFLKLLISYLEDGANCVHFHETKLKELFWSIRFYYTKTEQAAFFHPILGNDYDFKKKIFNNYRNARTVKELAGLCGTPLSSFKRKFLKEFREPAGNWLQKQINNIIKYKLADEDIPIGNIAEELHFSSHPQFCRYCKRNFGYTPGEWRKLLKNRDKTPGKLSGRV | not soluble |
| MSLKRTVDFSMFRCPLCDSSMDAASGKSLICTERGHTFDLSRHGYVNFLTKPVKTSYGAELFEARSRLIGECGFFDPLHDAIAELISHPKSGHEAFTILDSGCGEGSHLNALCGFDYAGKAAIGTGIDLSKDGILKASKAFKDLMWAVADVARAPFHDRQFDVVLSIFSPSNYAEFHRLLKNDGMLIKVVPRSDYLIELRQFLYTDSPRRTYSNTAAVERFTANAAHSRPVRLRYVKTLDQQAIHWLLKMTPLAWSAPKDRVSLLKEMKSADITVDVDILIGMKEGHHHHHH | soluble |
| MGSDKIHHHHHHMELFRLHYFLELCKVKQFTKAAENLAISQAALSKQIKILEATLGAELFNRQGQTTTLTPAGLILEKYCWRITNELVSIEEELKEINHSSNHIYVATYLCDLEYKLNDLLMTTLTDRSSNLQVHTIITENILQSLETMDADFGISFADLPLPEHIGKIDLFTANYQFILRNDHPALAKATTEEILKELTMYPFVRLNTEFSEQNKLTNWLDTTFSNFSPEKVIQVDTLSLITHLVSHSDSFAIVPEYTNIQLLDNSIHTLTYQELPKRNMAVYYLKERYMSRQLQQLLAECQKQFQ | not soluble |
| MGHHHHHHMSADFGLIGLAVMGQNLILNAADHGFTVCAYNRTQSKVDHFLANEAKGKSIIGATSIEDFISKLKRPRKVMLLVKAGAPVDALINQIVPLLEKGDIIIDGGNSHFPDSNRRYEELKKKGILFVGSGVSGGEEGARYGPSLMPGGSEEAWPHIKNIFQSISAKSDGEPCCEWVGPAGAGHYVKMVHNGIEYGDMQLICEAYDIMKRLGGFTDKEISDVFAKWNNGVLDSFLVEITRDILKFDDVDGKPLVEKIMDTAGQKGTGKWTAINALDLGMPVTLIGEAVFARCLSALKNERIRASKVLPGPEVPKDAVKDREQFVDDLEQALYASKIISYAQGFMLIREAAATYGWKLNNPAIALMWRGGCIIRSVFLGQITKAYREEPDLENLLFNKFFADAVTKAQSGWRKSIALATTYGIPTPAFSTALSFYDGYRSERLPANLLQAQRDYFGAHTFRVLPECASDNLPVDKDIHINWTGHGGNVSSSTYQA | soluble |
| MLSLATFFITMTTHRKPSQEQGFLNGQFLLAMPGMSDERFARSVVYICAHSDEGAMGFIINQLQPVQFPDLLRQIGVIGEEDLIILPDRAQHMVVRNGGPVDRTRGFVLHSDDYMVDSTMPVSDDVCLTATVDILRAIYGGGGPERALMALGYSGWAPGQLEMEVAENGWLTCDAPLDMLFDSDIEGKYSRLMLHMGIDMSRLVSDAGHAAADPLEHHHHHH | not soluble |
| MGSDKIHHHHHHMKADLHVHTCLSPCADLLMIPPVVERASGDVQILGIVDHNSAKNVPAFLKMKKLVVPGIEIQTVEDVHVLGFFSDIESALKVTKIVYEHLPSVKHDHEKMGYQLFVDEKGNYTGYEDVPLGFPSDLTLSQAVELIRSFGGIPVYAHVEKRFGVLYQLGFFPDLEIPVAEVVSREGKENAQKKNLRVIVTSDAHFPSDIGRRYIDISGAPNSPEEVLKKILNSEYTLGGVLNW | not soluble |
| MDVQDIIGIALNLATAGSLAAKVLPGCGGKKKGKSVEGESTSSSKGNGAKTPEGKEGSEARTPSAAGSAAPTAPAEGAAPAAGAPAAVAPKPPMAATHDPNYQTLAGLDNNVFGKKDGAAPAAGGGGPAAPADQNAKAATHDPNYQTLAGLNNNVFDKKDGVGAPAAAPVAAGGDKKPIQPNDKNKKAATMDPNYQTLAAVGGDVFGADKKAGGGGGDKKPIQPNNKGQKAATMDPNYQTLAAVGGDVFGADKKKK | soluble |
| MGSDKIHHHHHHMIKNLSKAKSTSKTSSTTSETLTPANYYDRWTDQSFMSATWFKKFLACEAEALAELTGKWQPVRDAKALVVGNWLHSYFESKQAHEKFKDEHPESISKRGPTKGQLKSDFKVANAMIQSLTNDHDFNLLYQGDKEVIVTGEIGGYPWKGKIDCLNLKQGYFVDLKTTADIYKVYWNPETREKESFVYAYNYPLQMAVYQELIKQQFGVTCKPYIVAVSKQDPPDKQAIDLPEYRLTNAMNQVLESQQHLQDIIKGEADPIQCGHCAYCRSTKKLESVVSADDLLID | not soluble |
| MKKLYIITGPAGVGKSTTCKRLAAQLDNSAYIEGDIINHMVVGGYRPPWESDELLALTWKNITDLTVNFLLAQNDVVLDYIAFPDEAEALAQTVQAKVDDVEIRFIILWTNREELLRRDALRKKDEQMGERCLELVEEFESKGIDERYFYNTSHLQPTNLNDIVKNLKTNPRFIFCMAGDPLEHHHHHH | soluble |
| MGSDKIHHHHHHMSLKEEQVSIKQDPEQEERQHDQFNDVQIKQESQDHDGVDSQYTNGTQNDDSERFEAAESDVKVEPGLGMGITSSQSEKGQVLPDQPEIKFIRRQINGYVGFANLPKQWHRRSIKNGFSFNLLCVGPDGIGKTTLMKTLFNNDDIEANLVKDYEEELANDQEEEEGQGEGHENQSQEQRHKVKIKSYESVIEENGVKLNLNVIDTEGFGDFLNNDQKSWDPIIKEIDSRFDQYLDAENKINRHSINDKRIHACLYFIEPTGHYLKPLDLKFMQSVYEKCNLIPVIAKSDILTDEEILSFKKTIMNQLIQSNIELFKPPIYSNDDAENSHLSERLFSSLPYAVIGSNDIVENYSGNQVRGRSYPWGVIEVDNDNHSDFNLLKNLLIKQFMEELKERTSKILYENYRSSKLAKLGIKQDNSVFKEFDPISKQLEEKTLHEAKLAKLEIEMKTVFQQKVSEKEKKLQKSETELFARHKEMKEKLTKQLKALEDKKKQLELSINSASPNVNHSPVPTKKKGFLR | not soluble |
| MGSDKIHHHHHHMSQQTGEASKIKGRFRNSHKVYGAGLGDLVGIIKAYLGAKRSAPSPKSAVPLQPITPAELARPQARLYRLGHSTVLMYLDGKWLLTDPVFSERASPFQWAGPKRFHQSPIAIEALPDIDGLILSHDHYDHLDTAAIKALAARVKHFYMPLGVGKRLIRLGIDKARITELDWWQSVQLGTIELTATPAQHFSGRGLFDRDATLWAGWAIHGEQARVFFSGDSGYFPGFAEIGERLGPFDVTLMETGAYNELWRDIHMMPEESLQAHLDVKGQLMVPIHNGTFDLALHDWFEPLERIRALAWDRSVKIATPIFGEALSLTLPGSGSDWWAQESAISTGVDAREKGRAPAAESSMVGIAES | not soluble |
| MEWIKQILAKHMKEDGTLDMEAANKEIDKEFPVNAVPKDQYNNLSSQLAEANKTLKSLEAKTKDNPDVQKELADLKEKADALEKENKDLKINSQVSAALQSAGAKDIDYALFKLGELELDKDGNVKDLESKVKDLKASIPDYFEKKDTLDDKSKKKTENKAGYQPIDNKLPKGKEPNEKDPFEAILSKYE | not soluble |
| MAHHHHHHMQVWGLVGRLTLPPSSSGKARKGSRRIPAADARLSKGSVNNRGRFVHNNRRMDNTLSVVVEKPAGLRRQWIAWPRGKSRDDPYEAIVPLLHISHYLPPVMAEAASCLDVKASFFPSLFTAGDSASLSMPRGGRHAGGADTTFNGIQGQPRNSPDYYYLGNRGGDDGGSPLWAAPPMVRIEVWIDNIRITGSKSDVTLWEAQVLRNADSCHAYLGGTANRALRNTLFWGYDLIKLTVRYP | not soluble |
| MECLKAEFFSPIALFKTPFSIKGIETYPLPPYSTVIGLLYTASGKKWKGERFNISVQGDYEAIFRDYVRFRKYNKKDKKLETLPLEVPLFYNFRLTVHILGDENLLKEFEKALKFPYVFPYLSGGEYPVKITKVKMVACRKEYFDTFNIPKNAYIPENIFTEEFRVSLEGHGVYYRVPSFLISQKPRQHEWVGVYYVQKGTKVSEMELLVDEEGEPVWV | soluble |
